Data set [1] addresses T1, CCL5-F12A (human), P13501.
T1 chain: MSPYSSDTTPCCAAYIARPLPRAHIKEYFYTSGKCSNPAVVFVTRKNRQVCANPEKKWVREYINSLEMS
The data set can be described thus: NMR titration; pH titration followed by 1H,15N-HSQC; this point pH 3.2; 0.2 mM 15N-labelled protein, 25 mM sodium acetate, 150 mM NaCl, 10% D2O, 298 K; monomer to dimer. The following applies: remark: other sources report otherwise.

Data set [2] deals with the molecule itself. The data set can be described thus: NMR titration; pH titration followed by 1H,15N-HSQC; this point pH 5.0 (for the wild type maintained until pH 6.0); 0.2 mM 15N-labelled protein, 25 mM sodium acetate, 150 mM NaCl, 10% D2O, 298 K; dimers to soluble oligomers, read from the loss of resonance intensity.
Data set [3] concerns the molecule itself. The data set can be described thus: NMR backbone relaxation (15N-R1, 15N-R2, 1H-15N NOE); pH 3.2, 298 K, 600 MHz, in the absence or presence of 180 mM ammonium sulfate; oligomeric state from R1, R2 and the R2/R1 ratio; monomer to dimer.
Data set [4] concerns the molecule itself. The data set can be described thus: NMR titration; pH titration followed by 1H,15N-HSQC; this point pH 3.2; 0.2 mM 15N-labelled protein, 25 mM sodium acetate, 150 mM NaCl, 10% D2O, 298 K; monomer to dimer.

B1: CCL5-F12A, P13501 24-91 (natural protein)
chain: MSPYSSDTTPCCAAYIARPLPRAHIKEYFYTSGKCSNPAVVFVTRKNRQVCANPEKKWVREYINSLEMS
B1: the stoichiometry N (as a rule, the number of molecules, sites or subunits per partner or assembly) in data set [1] is 2.

B2: CCL5-Y14A (natural protein, human)
chain: MSPYSSDTTPCCFAAIARPLPRAHIKEYFYTSGKCSNPAVVFVTRKNRQVCANPEKKWVREYINSLEMS
notes: starting Met residue (M0) that precedes residues 1-68 of the mature CCL5; CCL5 (RANTES), human, residues 1-68 of the mature CCL5, with Y14A; numbers count on: the mature protein; 15N-labelled for the NMR experiments
On to B2, for which the binding result in data set [2] is on record as “binds”.

B3: CCL5-12AAA14 (natural protein, human)
chain: MSPYSSDTTPCCAAAIARPLPRAHIKEYFYTSGKCSNPAVVFVTRKNRQVCANPEKKWVREYINSLEMS
notes: starting Met residue (M0) that precedes residues 1-68 of the mature CCL5; numbers count on: the mature protein; 15N- or 15N,13C-labelled for the NMR experiments; In the crystal the first five N-terminal residues were not modelled; also called 12AAA14 mutant
Consider B3, for which, in data set [3], the “stoichiometry N” value worked out at 2.

B4: human CC-type chemokine ligand 5 (CCL5) (natural protein)
chain: MSPYSSDTTPCCFAYIARPLPRAHIKEYFYTSGKCSNPAVVFVTRKNRQVCANPEKKWVREYINSLEMS
notes: starting Met residue (M0) that precedes residues 1-68 of the mature CCL5; CCL5 (RANTES), human, residues 1-68 of the mature CCL5; numbers count on: the mature protein; 15N-labelled for the NMR experiments; vector pET43.1a(+); also called RANTES; native CCL5
Consider B4, for which the “stoichiometry N” value in data set [4] turned out to be 2.

Values taken from paper PMC7084690, “N-terminal Backbone Pairing Shifts in CCL5-^12AAA^14 Dimer Interface: Structural Significance of the FAY Sequence” (International Journal of Molecular Sciences, 2020).
